Assay results: patent US20240417453A1 (ANWITA BIOSCIENCES, published 2024)
Numbering of substitutions follows the chain as printed. Names and notes keep the numbering of the source.

T1: human IL-2Rα (CD25) (human, UniProt P01589 22-240, limits assumed)
T1 construct: also called hIL-2Rα
T1 sequence: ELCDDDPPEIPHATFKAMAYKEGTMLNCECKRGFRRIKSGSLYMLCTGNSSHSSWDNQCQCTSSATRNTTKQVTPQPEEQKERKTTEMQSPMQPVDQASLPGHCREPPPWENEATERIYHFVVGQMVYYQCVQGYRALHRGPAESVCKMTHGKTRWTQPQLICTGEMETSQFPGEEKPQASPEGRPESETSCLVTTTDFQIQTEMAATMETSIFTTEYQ

T2: human IL-2Rβ (CD122) (human, UniProt P14784 27-239)
T2 construct: also called hIL-2Rβ
T2 sequence: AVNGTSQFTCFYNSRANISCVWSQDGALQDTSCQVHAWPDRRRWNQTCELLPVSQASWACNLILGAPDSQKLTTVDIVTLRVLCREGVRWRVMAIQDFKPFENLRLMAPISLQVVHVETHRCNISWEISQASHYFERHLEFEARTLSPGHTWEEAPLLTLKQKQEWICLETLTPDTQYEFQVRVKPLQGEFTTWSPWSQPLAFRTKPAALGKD

B1: Anti-HSA-IL-2 A2 (IL-2-IL15 chimera 12) (other)
chain: QVQLVESGGGVVQPGGSLRLSCAASGFAFRGFGMSWVRQAPGKGLEWVSSINNGGSDTYYADSVKGRFTISRDNSKNTLYLQMNSLRAEDTAVYYCAIGGPGASPSGQGTQVTVSSGGGGSGGGGSGGGGSAPTSSSTKKTQLQLKHLLLDLQMILNGIQSMHIDATTFKFYMPKKATELKHLQCLEEELKPLEEVLNLAQSKNFHLRPRDLISNINVIVLELKGSETTFMCEYADETATIVEFLNRWITFSQSIISTLT
notes: E15K, C125S); Produced in CHO cells; also called anti-HSA-hIL-2 fusion protein A2
B2: Anti-HSA-IL-2 A4 (IL-2-IL15 chimera 12) (other)
chain: EVQLVESGGGLVQPGGSLRLSCAASGSTWSINTLAWYRQAPGKQRDLVARISSGGSTYYADSVKGRFTISRDNSKNTLYLQMNSLRAEDTAVYYCYAQSTWYPPSWGQGTLVTVSSGGGGSGGGGSGGGGSAPTSSSTKKTQLQLKHLLLDLQMILNGIQSMHIDATTFKFYMPKKATELKHLQCLEEELKPLEEVLNLAQSKNFHLRPRDLISNINVIVLELKGSETTFMCEYADETATIVEFLNRWITFSQSIISTLT
notes: Produced in CHO cells; also called anti-HSA-hIL-2 fusion protein A4
B3: Anti-HSA-IL-2 A1 (IL-2-IL15 chimera 7) (other)
chain: B1 chain with H163E
notes: E15K, C125S); Produced in CHO cells; also called anti-HSA-hIL-2 fusion protein A1
B4: Anti-HSA-IL-2 A15 (IL-2-IL15 chimera 12) (other)
chain: B1 chain with G117A, G118S, G119T, G120K, S121G
notes: Produced in CHO cells; also called anti-HSA-hIL-2 fusion protein A15
B5: Anti-HSA-IL-2 A17 (IL-2-IL15 chimera 12) (other)
chain: B2 chain with G117A, G118S, G119T, G120K, S121G
notes: Produced in CHO cells; also called anti-HSA-hIL-2 fusion protein A17
B6: Anti-HSA-IL-2 A3 (IL-2-IL15 chimera 7) (other)
chain: B2 chain with H163E
notes: Produced in CHO cells; also called anti-HSA-hIL-2 fusion protein A3

What follows are binders tested against T1, human IL-2Rα (CD25) (assay: BLI (OCTET RED96), hIL-2Rα loaded on the biosensor, fusion protein in solution at 33.3, 100 and 300 nM).
Method: (§1) OCTET® RED96 was used to characterize the interactions of anti-HSA-hIL-2 fusion proteins with human IL-2Rα (CD25) and IL-2Rβ (CD122). Briefly, hIL-2Rα and hIL-2Rβ were each loaded onto a biosensor. Each biosensor was then dipped into a solution containing an anti-HSA-hIL-2 fusion protein at 10 to 2,000 nM. Primary experimental data was analyzed with global fitting to determine a binding affinity (Kd).
B1: no binding (tested: 300 nM). B2: no binding (tested: 300 nM).

Each binder was assayed against T2, human IL-2Rβ (CD122) (assay: BLI (OCTET RED96), receptor loaded on biosensor, global fitting).
Method: as §1
In the case of B1, the Kd is reported as 139 nM. B3 was tested, and the Kd was 55 nM. In the case of B4, the Kd is reported as 94 nM.

The binders below were run against T1, human IL-2Rα (CD25) (assay: BLI (OCTET RED96), receptor loaded on biosensor, fusion protein in solution).
Method: as §1
B3: no binding (tested: 10 to 2,000 nM). B4: no binding (tested: 10 to 2,000 nM). B5: no binding (tested: 10 to 2,000 nM). B6: no binding (tested: 10 to 2,000 nM).
